Measured values published in patent US20150258192A1, “COMPOSITIONS AND METHODS FOR PREVENTING OR TREATING CHRONIC LUNG ALLOGRAFT DYSFUNCTION (CLAD) AND IDIOPATHIC PULMONARY FIBROSIS (IPF)” (priority 2014, published 2015).
No end group written: not given here.

How the values were obtained:
Test in all cases: Kinase Profiling Assay
Assay type in all cases: biochemical
Conditions in all cases: peptide 100 μM
[1] = target: T1, Tec(h) activated (Homo sapiens, UniProt P42680)
T1 construct: purchased Millipore
T1 sequence (P42680 1-631): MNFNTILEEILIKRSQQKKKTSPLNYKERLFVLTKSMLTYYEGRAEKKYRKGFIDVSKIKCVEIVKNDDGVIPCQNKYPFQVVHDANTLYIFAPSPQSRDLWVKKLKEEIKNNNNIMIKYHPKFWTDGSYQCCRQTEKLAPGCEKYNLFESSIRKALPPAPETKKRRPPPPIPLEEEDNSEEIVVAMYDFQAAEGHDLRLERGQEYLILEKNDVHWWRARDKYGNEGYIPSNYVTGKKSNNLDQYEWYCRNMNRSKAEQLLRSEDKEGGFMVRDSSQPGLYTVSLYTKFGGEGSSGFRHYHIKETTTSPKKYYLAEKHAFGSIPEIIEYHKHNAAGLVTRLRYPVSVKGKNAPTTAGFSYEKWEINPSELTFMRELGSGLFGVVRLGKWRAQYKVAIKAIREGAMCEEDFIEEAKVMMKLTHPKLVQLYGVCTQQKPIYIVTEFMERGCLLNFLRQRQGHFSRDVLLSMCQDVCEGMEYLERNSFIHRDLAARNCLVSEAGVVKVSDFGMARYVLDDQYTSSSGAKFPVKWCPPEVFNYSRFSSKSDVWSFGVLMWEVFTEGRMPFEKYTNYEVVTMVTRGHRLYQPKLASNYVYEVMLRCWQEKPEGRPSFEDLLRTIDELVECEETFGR
Summary of the method: (§1)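 Activity remaining relative to an uninhibited control was determined by scintillation counting of labeled substrate bound to a negatively charged filter. Radiolabeled phosphate came from ATP; the substrate carried positive charge. Duplicate measurements, within a 266-kinase human panel.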

[2] = target: T2, PKG1β(h) (Homo sapiens, UniProt Q13976)
T2 sequence (Q13976 1-686 isoform Q13976-2): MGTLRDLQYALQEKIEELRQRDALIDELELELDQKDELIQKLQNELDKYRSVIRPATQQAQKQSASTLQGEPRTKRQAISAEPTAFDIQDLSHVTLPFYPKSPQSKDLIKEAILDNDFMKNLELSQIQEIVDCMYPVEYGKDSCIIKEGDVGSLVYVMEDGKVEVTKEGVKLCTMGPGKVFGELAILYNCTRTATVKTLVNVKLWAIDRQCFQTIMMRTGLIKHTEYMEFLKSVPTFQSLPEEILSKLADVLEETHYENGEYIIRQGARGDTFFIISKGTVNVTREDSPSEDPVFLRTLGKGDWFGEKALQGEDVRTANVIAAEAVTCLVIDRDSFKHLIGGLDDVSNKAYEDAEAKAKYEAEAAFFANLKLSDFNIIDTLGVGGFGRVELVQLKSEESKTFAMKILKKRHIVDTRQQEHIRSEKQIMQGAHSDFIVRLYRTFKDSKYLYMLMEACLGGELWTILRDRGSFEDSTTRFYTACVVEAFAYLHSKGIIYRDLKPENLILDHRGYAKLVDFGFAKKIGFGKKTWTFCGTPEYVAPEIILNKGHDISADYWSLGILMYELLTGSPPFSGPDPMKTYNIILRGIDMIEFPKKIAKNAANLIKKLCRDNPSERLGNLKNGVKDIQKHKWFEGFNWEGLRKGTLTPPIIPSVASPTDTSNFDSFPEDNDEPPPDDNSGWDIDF
Summary of the method: as §1

[3] = target: T3, HIPK2(h) (Homo sapiens, UniProt Q9H2X6)
T3 construct: purchased Millipore
Summary of the method: as §1

[4] = target: PKCγ(h) (Homo sapiens, UniProt P05129)
Summary of the method: as §1

[5] = target: T4, MLCK(h) (Homo sapiens, UniProt Q9H1R3)
T4 construct: purchased Millipore
Summary of the method: as §1

[6] = target: T5, Tie2(h) (Homo sapiens, UniProt Q02763)
T5 construct: purchased Millipore
Summary of the method: as §1

[7] = target: CaMKI(h) (Homo sapiens, UniProt Q14012)
Summary of the method: as §1

[8] = target: CHK2(R145W)(h) (Homo sapiens, UniProt O96017, R145W)
Summary of the method: as §1

[9] = target: T6, EphB3(h) (Homo sapiens, UniProt P54753)
T6 sequence (P54753 34-998): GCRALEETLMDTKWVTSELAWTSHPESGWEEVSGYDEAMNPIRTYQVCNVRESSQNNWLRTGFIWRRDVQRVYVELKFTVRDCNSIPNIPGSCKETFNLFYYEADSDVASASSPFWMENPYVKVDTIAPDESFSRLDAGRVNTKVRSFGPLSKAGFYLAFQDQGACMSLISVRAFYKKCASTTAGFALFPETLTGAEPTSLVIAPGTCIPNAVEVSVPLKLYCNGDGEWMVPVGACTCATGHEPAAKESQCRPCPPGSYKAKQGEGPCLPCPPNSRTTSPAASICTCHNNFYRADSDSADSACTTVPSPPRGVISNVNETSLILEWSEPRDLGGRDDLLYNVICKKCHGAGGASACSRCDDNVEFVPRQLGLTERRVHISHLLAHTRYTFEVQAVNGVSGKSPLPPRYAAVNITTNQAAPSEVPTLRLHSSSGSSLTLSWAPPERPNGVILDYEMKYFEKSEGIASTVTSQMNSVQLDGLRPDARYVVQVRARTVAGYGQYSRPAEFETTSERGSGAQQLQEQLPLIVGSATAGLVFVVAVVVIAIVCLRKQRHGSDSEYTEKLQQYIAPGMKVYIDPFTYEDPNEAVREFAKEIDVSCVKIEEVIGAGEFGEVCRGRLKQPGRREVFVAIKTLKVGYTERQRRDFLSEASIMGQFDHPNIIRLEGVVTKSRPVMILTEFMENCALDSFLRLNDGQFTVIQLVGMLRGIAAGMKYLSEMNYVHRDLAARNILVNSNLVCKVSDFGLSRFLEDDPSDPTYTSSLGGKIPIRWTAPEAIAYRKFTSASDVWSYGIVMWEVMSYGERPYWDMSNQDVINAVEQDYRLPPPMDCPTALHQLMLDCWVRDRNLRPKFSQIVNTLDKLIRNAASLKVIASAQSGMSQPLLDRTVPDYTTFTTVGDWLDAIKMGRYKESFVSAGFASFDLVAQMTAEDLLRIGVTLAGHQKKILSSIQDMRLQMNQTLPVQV
Summary of the method: as §1

[10] = target: Rsk2(h) (Homo sapiens, UniProt P51812)
Summary of the method: as §1

Sequence of Rsk2(h) (P51812 whole entry): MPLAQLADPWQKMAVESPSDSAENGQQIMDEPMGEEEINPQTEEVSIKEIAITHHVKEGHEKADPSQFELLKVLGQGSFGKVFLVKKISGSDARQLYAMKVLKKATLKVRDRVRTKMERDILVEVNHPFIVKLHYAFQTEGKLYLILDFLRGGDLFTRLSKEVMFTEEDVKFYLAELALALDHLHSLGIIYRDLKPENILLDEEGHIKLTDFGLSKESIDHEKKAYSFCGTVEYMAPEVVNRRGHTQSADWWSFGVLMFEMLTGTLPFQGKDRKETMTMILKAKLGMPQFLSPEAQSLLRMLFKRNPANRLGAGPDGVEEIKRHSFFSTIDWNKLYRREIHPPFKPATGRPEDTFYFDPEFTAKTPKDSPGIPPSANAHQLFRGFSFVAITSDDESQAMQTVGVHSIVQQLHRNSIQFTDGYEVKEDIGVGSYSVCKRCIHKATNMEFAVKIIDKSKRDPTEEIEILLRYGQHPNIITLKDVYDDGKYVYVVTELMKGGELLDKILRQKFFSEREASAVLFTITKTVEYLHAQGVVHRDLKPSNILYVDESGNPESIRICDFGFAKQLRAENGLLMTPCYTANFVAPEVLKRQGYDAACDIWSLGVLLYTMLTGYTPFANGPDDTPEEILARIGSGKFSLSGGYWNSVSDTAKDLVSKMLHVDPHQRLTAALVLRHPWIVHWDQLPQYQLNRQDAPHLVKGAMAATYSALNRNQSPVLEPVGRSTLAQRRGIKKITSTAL
T5 sequence (Q02763 23-1124): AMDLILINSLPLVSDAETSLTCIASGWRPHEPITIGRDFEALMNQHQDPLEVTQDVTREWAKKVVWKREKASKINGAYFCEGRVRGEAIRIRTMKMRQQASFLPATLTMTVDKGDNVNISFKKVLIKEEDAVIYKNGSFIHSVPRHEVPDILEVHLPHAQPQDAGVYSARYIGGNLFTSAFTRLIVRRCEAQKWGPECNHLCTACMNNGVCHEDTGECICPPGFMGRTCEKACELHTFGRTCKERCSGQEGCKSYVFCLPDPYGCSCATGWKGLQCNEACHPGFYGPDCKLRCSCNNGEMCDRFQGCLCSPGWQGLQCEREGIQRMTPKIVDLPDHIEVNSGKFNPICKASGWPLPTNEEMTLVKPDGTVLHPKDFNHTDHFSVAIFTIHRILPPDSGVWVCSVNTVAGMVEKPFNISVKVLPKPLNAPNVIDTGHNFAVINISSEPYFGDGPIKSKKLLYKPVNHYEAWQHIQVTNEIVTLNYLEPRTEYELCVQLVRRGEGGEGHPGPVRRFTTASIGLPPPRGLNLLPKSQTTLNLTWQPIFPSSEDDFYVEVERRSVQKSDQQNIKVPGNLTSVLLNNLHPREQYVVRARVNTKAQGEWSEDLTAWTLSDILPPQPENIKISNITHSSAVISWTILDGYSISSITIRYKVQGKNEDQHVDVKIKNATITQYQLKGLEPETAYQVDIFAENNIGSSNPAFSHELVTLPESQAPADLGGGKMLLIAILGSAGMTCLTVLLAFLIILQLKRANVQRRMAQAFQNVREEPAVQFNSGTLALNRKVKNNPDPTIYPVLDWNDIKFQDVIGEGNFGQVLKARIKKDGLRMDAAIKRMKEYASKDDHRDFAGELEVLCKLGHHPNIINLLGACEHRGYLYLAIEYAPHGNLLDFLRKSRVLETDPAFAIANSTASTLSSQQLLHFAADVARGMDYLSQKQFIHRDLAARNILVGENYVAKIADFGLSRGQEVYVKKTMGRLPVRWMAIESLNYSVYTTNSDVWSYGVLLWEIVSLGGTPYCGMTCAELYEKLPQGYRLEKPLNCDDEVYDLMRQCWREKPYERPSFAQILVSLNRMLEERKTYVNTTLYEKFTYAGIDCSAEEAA
T4 sequence (Q9H1R3 2-596 limits assumed): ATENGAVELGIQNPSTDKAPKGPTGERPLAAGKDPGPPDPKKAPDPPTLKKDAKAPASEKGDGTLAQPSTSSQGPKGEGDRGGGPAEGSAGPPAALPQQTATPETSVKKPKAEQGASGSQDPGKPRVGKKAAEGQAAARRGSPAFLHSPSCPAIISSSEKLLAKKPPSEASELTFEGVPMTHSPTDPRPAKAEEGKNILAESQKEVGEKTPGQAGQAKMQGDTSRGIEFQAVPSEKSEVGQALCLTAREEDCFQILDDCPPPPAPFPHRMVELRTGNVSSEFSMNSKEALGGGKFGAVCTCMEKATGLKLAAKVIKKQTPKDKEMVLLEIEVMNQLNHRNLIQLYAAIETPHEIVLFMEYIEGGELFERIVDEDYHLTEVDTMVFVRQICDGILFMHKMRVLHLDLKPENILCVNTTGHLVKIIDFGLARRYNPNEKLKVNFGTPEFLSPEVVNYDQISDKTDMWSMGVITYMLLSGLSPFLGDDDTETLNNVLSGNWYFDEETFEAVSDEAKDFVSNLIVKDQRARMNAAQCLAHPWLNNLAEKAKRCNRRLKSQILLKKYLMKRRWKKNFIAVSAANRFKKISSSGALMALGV
Sequence of CHK2(R145W)(h) (O96017 whole entry R145W): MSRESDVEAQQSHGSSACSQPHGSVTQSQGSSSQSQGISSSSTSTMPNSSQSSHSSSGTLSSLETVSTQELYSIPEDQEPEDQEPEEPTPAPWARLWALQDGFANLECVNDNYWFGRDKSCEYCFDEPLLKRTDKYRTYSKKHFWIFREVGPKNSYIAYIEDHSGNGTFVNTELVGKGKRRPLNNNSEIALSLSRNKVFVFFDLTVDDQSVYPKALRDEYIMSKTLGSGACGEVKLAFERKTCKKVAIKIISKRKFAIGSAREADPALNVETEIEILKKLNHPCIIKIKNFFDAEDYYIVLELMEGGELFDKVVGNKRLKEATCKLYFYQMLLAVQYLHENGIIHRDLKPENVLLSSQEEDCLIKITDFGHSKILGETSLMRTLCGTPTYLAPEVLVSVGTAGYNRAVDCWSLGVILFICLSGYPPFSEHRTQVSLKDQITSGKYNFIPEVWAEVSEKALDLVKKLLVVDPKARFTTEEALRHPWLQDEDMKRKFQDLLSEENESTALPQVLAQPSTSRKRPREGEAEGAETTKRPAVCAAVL
T3 sequence (Q9H2X6 whole entry): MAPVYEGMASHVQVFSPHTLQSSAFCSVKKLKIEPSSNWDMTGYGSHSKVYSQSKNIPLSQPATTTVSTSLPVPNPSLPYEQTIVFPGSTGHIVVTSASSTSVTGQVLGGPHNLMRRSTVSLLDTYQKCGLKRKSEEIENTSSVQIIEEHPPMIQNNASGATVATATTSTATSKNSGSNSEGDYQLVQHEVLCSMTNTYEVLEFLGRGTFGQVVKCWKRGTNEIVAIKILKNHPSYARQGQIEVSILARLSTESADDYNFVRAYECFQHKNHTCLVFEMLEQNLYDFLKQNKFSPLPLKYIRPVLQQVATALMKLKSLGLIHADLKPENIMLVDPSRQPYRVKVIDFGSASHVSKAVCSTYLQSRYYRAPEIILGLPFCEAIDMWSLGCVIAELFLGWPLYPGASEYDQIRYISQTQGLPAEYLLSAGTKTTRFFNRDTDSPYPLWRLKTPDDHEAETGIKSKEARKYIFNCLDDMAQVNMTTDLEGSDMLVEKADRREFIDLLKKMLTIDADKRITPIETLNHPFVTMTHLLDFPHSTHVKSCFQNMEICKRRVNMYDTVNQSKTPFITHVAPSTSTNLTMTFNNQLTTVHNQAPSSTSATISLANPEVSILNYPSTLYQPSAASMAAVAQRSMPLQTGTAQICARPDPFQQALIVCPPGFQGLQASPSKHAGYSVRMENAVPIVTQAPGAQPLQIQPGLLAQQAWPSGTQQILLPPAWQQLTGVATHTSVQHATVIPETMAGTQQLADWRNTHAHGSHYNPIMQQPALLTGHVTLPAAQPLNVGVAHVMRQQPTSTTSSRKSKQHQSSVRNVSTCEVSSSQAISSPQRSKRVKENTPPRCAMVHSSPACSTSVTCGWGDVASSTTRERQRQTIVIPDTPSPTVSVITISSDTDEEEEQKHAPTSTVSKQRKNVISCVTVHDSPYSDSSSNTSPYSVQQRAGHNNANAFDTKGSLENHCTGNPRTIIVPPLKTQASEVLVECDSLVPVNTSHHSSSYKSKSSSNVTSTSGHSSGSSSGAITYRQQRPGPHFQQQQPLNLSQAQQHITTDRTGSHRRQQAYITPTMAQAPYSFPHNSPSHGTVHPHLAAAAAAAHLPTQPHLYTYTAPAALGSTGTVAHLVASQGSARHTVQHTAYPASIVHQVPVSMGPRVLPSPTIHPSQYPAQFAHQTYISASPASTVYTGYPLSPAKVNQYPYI

Sequence	% activity [1]	% activity [2]	% activity [3]	% activity [4]	% activity [5]	% activity [6]	% activity [7]	% activity [8]	% activity [9]	% activity [10]
FAKLAARLYRKALARQLGVAA [MMI-0300]	56%	50%	73%	89%	2%	26%	1%	33%	62%	51%
HRRIKAWLKKIKALARQLGVAA (Mammal) [MMI-0500]	33%	24%	38%	6%	0%	22%	-1%	3%	79%	14%
KAFAKLAARLYRKALARQLGVAA [MMI-0400]	29%	53%	90%	79%	1%	21%	0%	31%	47%	38%
YARAAARQARAKALARQLGVAA [MMI-0100]	100%	71%	98%	–	85%	28%	–	97%	–	–
YARAAARQARAKALNRQLGVA (Mammal) [MMI-0200]	77%	57%	–	101%	–	53%	21%	81%	128%	101%
